Results as given in patent publication US20180265552A1 (INSTITUT NATIONAL DE LA RECHERCHE AGRONOMIQUE, published 2018).

Target: TRCP VLP
Assay: titration, native agarose gel mobility shift

B1: Nb23 fused to EGFP (VHH)
VHH: QVQLQESGGGSVQVGGSLRVACAASGDTFSGYLAAWFRQAPGKGREGVAAINSKRHTTSYADSVKGRFTISKDNADNIMYLEMNSLKPEDTAIYYCAAADAIGLAEYWSTPTLSAARYKYWGQGTQVTVSS
With B1 the “molecular ratio between GFLV CP and Nb23:GFP at maximum mobility shift” value was ~1 Nb23:GFP per CP.
